Laboratory results taken from PMC3017603.
Where two headings read alike, the source gives them in different places.

Legend:
[1] = target: T1, Nab3-RRM(419) (Saccharomyces cerevisiae, UniProt P38996 329-419); assay: fluorescence anisotropy
T1 sequence: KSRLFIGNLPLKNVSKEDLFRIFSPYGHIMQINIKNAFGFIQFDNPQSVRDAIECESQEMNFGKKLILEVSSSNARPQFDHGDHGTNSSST

[2] = target: T1, Nab3-RRM(419); assay: fluorescence anisotropy; remark: listed apart in the source

Binder: UUCUUAUUCUUA (ssRNA) [FAM-wtsnR47]
- binding result [1]: binds

Binder: UUCUUAUUUUUA (ssRNA) [FAM-snR47one]
- binding result [2]: binds
